Test results published in publication PMC12795458.

Biological target: RipA fused to the Nanoluciferase large subunit (CEPlac-lgbit-ripA)
Experiment: split-luciferase assay
Conditions: in S. pneumoniae cells, signal relative to control strains R5380 and R5570, read off a plot

DnaN fused to the Nanoluciferase small subunit (CEPIIlac-smBit-dnaN) (from UniProt O06672) L185R
response (relative fold induction) (strain R5567 vs R5381, parent: est. 27): 5.5

DnaN fused to the Nanoluciferase small subunit (CEPIIlac-smBit-dnaN) (from UniProt O06672) Y249N
response (relative fold induction) (strain R5568 vs R5381, parent: est. 13): 4.8

DnaN fused to the Nanoluciferase small subunit (CEPIIlac-smBit-dnaN) (from UniProt O06672) H183P
response (relative fold induction) (strain R5566 vs R5381, parent: est. 22): 4.8
